# Measured values: US20020147326A1 (GlaxoSmithKline, published 2002)
# B1: CD86-Ig (Fc fusion)
# chain: APLKIQAYFNETADLPCQFANSQNQSLSELVVFWQDQENLVLNEVYLGKEKFDSVHSKYMGRTSFDSDSWTLRLHNLQIKDKGLYQCIIHHKKPTGMIRIHQMNSELSVLANFSQPEIVPISNITENVYINLTCSSIHGYPEPKKMSVLLRTKNSTIEYDGIMQKSQDNVTELYDVSISLSVSFPDVTSNMTIFCILETDKTRLLSSPFSIELEDPQPPPDHEPKSADKTHTCPPCP
# notes: Mature N-terminus LKIQ-, junction PPPDHepksa; also called B7.2-Ig; monomeric CD86-Ig; not shown: human IgG1 heavy chain Fc region (hinge, CH2, CH3) of vector COSFcLink
# Columns and labels:
# CTLA4-Ig [1] = target: T1, CTLA4-Ig (human, UniProt P16410 36-161); experiment: isothermal titration calorimetry at 44° C., Kd corrected to 37° C. by the van't Hoff equation
# T1 construct: also called CTLA4-Fc; not shown: human IgG1 heavy chain Fc region (hinge, CH2, CH3) of vector COSFcLink
# T1 sequence (P16410 other isoform, or with tags, fused parts or gaps): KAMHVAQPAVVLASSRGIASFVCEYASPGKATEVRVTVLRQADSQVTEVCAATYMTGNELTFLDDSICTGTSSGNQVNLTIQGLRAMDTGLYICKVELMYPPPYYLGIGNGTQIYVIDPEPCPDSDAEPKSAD
# [2] = target: T2, human CD28 expressed on the cell surface (human, UniProt P10747 19-220); experiment: flow cytometry on PCD28.1.s2.1 cells expressing human CD28
# T2 construct: whole, on cells; also called CD28 positive cells; PCD28.1.s2.1 cells
# Method: Non-adherent CD28 expressing cells (PCD28.1.s2.1) were used for this assay format. […] All incubations were carried out on ice. […] After washing twice in binding buffer, bound fusion proteins were detected with a 1:2000 dilution of a goat anti-human polyclonal antibody labeled with FITC (Flourescein isothiocyanate, Southern Biotech).
# CTLA4-Ig [3] = target: T1, CTLA4-Ig; experiment: isothermal titration calorimetry, Kd at 37° C., measured at 37° C.
# CTLA4-Ig [4] = target: T1, CTLA4-Ig; experiment: isothermal titration calorimetry, in solution, 37° C.
# CTLA4-Ig [5] = target: T1, CTLA4-Ig; experiment: isothermal titration calorimetry, in solution, 44° C.
binder,measurement,setting,value
B1,Kd,CTLA4-Ig [1],22 nM
same,binding result,[2],no binding
same,Kd,CTLA4-Ig [3],40 nM
same,Kd,CTLA4-Ig [4],38 nM
same,Molar Ratio (CTLA4-Ig per construct),CTLA4-Ig [4],0.8
same,ΔH,CTLA4-Ig [4],-33 kcal/mol
same,Kd,CTLA4-Ig [5],71 nM
same,Molar Ratio (CTLA4-Ig per construct),CTLA4-Ig [5],0.79
same,ΔH,CTLA4-Ig [5],-34 kcal/mol
